{"source": "paper PMC8099091", "about": "“Heterogeneous multimeric structure of isocitrate lyase in complex with succinate and itaconate provides novel insights into its inhibitory mechanism” (PLoS ONE, 2021)", "proteins": {"B1": {"name": "isocitrate lyase from Mycobacterium tuberculosis (tbICL) (enzyme)", "chain": "MSVVGTPKSAEQIQQEWDTNPRWKDVTRTYSAEDVVALQGSVVEEHTLARRGAEVLWEQLHDLEWVNALGALTGNMAVQQVRAGLKAIYLSGWQVAGDANLSGHTYPDQSLYPANSVPQVVRRINNALQRADQIAKIEGDTSVENWLAPIVADGEAGFGGALNVYELQKALIAAGVAGSHWEDQLASEKKCGHLGGKVLIPTQQHIRTLTSARLAADVADVPTVVIARTDAEAATLITSDVDERDQPFITGERTREGFYRTKNGIEPCIARAKAYAPFADLIWMETGTPDLEAARQFSEAVKAEYPDQMLAYNCSPSFNWKKHLDDATIAKFQKELAAMGFKFQFITLAGFHALNYSMFDLAYGYAQNQMSAYVELQEREFAAEERGYTATKHQREVGAGYFDRIATTVDPNSSTTALTGSTEEGQFH", "notes": "Tetramer in solution by SEC-MALS; dimer (subunits A and B) in the asymmetric unit, tetramer by twofold crystal symmetry; Theoretical monomer mass 47.08 kDa including the C-terminal His-tag; also called tbICL1; isocitrate lyase isoform 1; not shown: His-tag, C-terminal, kept"}}, "target": "the molecule itself", "experiment": "SEC-MALS; Superdex 200 Increase 10/300 GL, 20 mM Tris-HCl pH 8.0, 150 mM NaCl, 0.4 mL/min, 20°C; repeated under various conditions with the same results"}
{"protein": "B1", "values": [{"measurement": "stoichiometry N", "result": 4}]}
